Reference: patent US12702716B2, “Monocyte-specific aptamers and uses thereof for delivering therapeutic agents to heart” (Academia Sinica, priority 2020, dated 2026)

Assays:
[1] = tested on: RAW264.7 monocyte cell line; assay: Flow cytometry binding of Cy5-labeled aptamers to RAW264.7; set-up: species or system mouse; settings: 200 nM Cy5-aptamer, 4° C., 30 minutes; FIG. 2A
Experimental: (§1) Cy5-labeled J10 and S2 were also incubated with the mouse endothelial cell line SVEC which was used as a negative selection. In brief, 5×10^5 of each selected cell line was pre-mixed in a bloc king buffer (20% FBS and 10% salmon sperm DNA in PBS) at 4° C. for 30 minutes. After that, the cells were reacted with 200 nM Cy5-J10 or Cy5-S2 in the blocking buffer at 4° C. for 30 minutes. Finally, the sample was subjected to flow cytometry using standard protocols known in the art.

[2] = tested on: J774A.1 monocyte cell line; assay: Flow cytometry binding of Cy5-labeled aptamers to J774A.1; set-up: species or system mouse; settings: 200 nM Cy5-aptamer, 4° C., 30 minutes; FIG. 2A
Experimental: as §1

[3] = tested on: mouse endothelial cell line SVEC; assay: Flow cytometry binding of Cy5-labeled aptamers to SVEC (negative selection); settings: 200 nM Cy5-aptamer, 4° C., 30 minutes; FIG. 2A
Experimental: as §1

[4] = tested on: human monocyte cell line THP-1; assay: Flow cytometry binding of Cy5-labeled aptamers to THP-1; settings: 200 nM Cy5-aptamer, 4° C., 30 minutes; FIG. 3
Experimental: as §1, with “To confirm that J10 binding, but not S2 binding, was selective to human monocytes in vitro, Cy5-labeled” for “Cy5-labeled”, “the human monocyte cell lines, THP-1 and U937, and human umbilical cord” for “the mouse”, “endothelial cells (HUVEC),” for “endothelial cell line SVEC”, “which were” for “which was”, “negative control.” for “negative selection.”

[5] = tested on: human monocyte cell line U937; assay: Flow cytometry binding of Cy5-labeled aptamers to U937; settings: 200 nM Cy5-aptamer, 4° C., 30 minutes; FIG. 3
Experimental: as §1, with “To confirm that J10 binding, but not S2 binding, was selective to human monocytes in vitro, Cy5-labeled” for “Cy5-labeled”, “the human monocyte cell lines, THP-1 and U937, and human umbilical cord” for “the mouse”, “endothelial cells (HUVEC),” for “endothelial cell line SVEC”, “which were” for “which was”, “negative control.” for “negative selection.”

[6] = tested on: human umbilical cord endothelial cells (HUVEC); assay: Flow cytometry binding of Cy5-labeled aptamers to HUVEC (negative control); settings: 200 nM Cy5-aptamer, 4° C., 30 minutes; FIG. 3
Experimental: as §1, with “To confirm that J10 binding, but not S2 binding, was selective to human monocytes in vitro, Cy5-labeled” for “Cy5-labeled”, “the human monocyte cell lines, THP-1 and U937, and human umbilical cord” for “the mouse”, “endothelial cells (HUVEC),” for “endothelial cell line SVEC”, “which were” for “which was”, “negative control.” for “negative selection.”

[7] = tested on: infarct area of the injured hearts; settings: mouse, iv
Experimental: as §1
To generate the murine I/R models, 8-10 weeks old mice were anesthetised with 80 mg/kg Zoletil 50 and 3.5 mg/kg Rompun and given O2 via a tracheal tube on the 37° C. heating pad. The heart was accessed via left thoracotomy between the third and fourth ribs. The left anterior descending coronary artery was temporarily ligated with sutures 7-0 polypropylene through polyethylene-10 tubing for 45 minutes. Subsequently, polyethylene-10 tubing was removed to induce myocardial ischemia/reperfusion injury. The success of the surgery was evaluated by echocardiography on the following day.

[8] = tested on: circulating myeloid cells (CD45+ CD11b+ cells); assay: Ex vivo binding to peripheral blood cells by flow cytometry; set-up: species or system mouse; settings: 2 μM Cy5-Apt, 30 minutes at 4° C., peripheral blood of healthy mice; FIG. 2D
Experimental: To test for ex vivo binding specificity and affinity, 100 μL peripheral blood from healthy mice was withdrawn via the submandibular vein, collected in EDTA-containing anticoagulant tubes (BD Vacutainer), and incubated with 2 mL ACK lysing buffer for 10 minutes to lyse the red blood cells. After that, 2% FBS in PBS was added to stop the reaction. Following centrifugation (300 g for 3 minutes at 4° C.) the supernatants were removed. One million cells were blocked by CD16/CD32 Fc blocking antibody (1:100; Invitrogen) after incubation for 20 minutes. Then the cells were stained for CD45 (PE-Cy7; 1:100; Biolegend), CD11b (PE; 1:200; Biolegend) and 2 μM Cy5-Apt for 30 minutes at 4° C. Finally, the cells were washed by 2% FBS in PBS and subjected to flow cytometry using standard protocols known in the art.

B1: S2: control aptamer, scrambled J10 sequence with same nucleotide composition, SEQ ID NO. 5 (nucleic acid)
DNA: CAATAGAGTCGTACAGGTCGTGAGAAGGCGTTGGTCTATCGGGGTCGTGGACTGTCCAAGGGCATGACCGGTCTGACGGTGGCCAGAGACGCAGGAGGGG
modifications: DNA, backbone and methylation of C not given here; Cy5 label
[1]
  percentage of Cy5-labeled monocytes (RAW264.7): but not S2, was capable of binding selectively to monocytes in vitro
[2]
  percentage of Cy5-labeled monocytes (J774A.1): but not S2, was capable of binding selectively to monocytes in vitro
[3]
  detection of Cy5-labeled aptamer in SVEC: no detection
[4]
  binding affinity to THP-1: no binding affinity
[5]
  binding affinity to U937: no binding affinity
[6]
  binding affinity to HUVEC: no binding affinity

B2: J10: monocyte-specific DNA aptamer from cell-SELEX, SEQ ID NO. 4 (Table 2); Cy5-labeled for flow cytometry (nucleic acid)
DNA: CAATAGAGTCGTACAGGTCGACGCTCGGATGCCACTACAGGGATGGGAGGGAGGGGGCTCGTGGCGGCTAGGGGGTATAACTCATGGACGTGCTGGTGAC
modifications: DNA, backbone and methylation of C not given here; Cy5 label
[1]
  percentage of Cy5-labeled monocytes (RAW264.7): significantly higher than the percentage of Cy5-labeled S2 monocytes
[2]
  percentage of Cy5-labeled monocytes (J774A.1): significantly higher than the percentage of Cy5-labeled S2 monocytes
[3]
  detection of Cy5-labeled aptamer in SVEC: no detection
[7]
  in vivo targeting of aptamer to the injured site (PCR): confirmed in vivo targeting ability
[4]
  binding affinity to THP-1: high binding affinity
[5]
  binding affinity to U937: high binding affinity
[6]
  binding affinity to HUVEC: but not human endothelial cell line HUVEC
[8]
  affinity to circulating myeloid cells (CD45+ CD11b+ cells): high affinity
